The results in this text go back to the DeepSol protein solubility set.

The series in a line: soluble on expression in E. coli; label from the status in PepcDB or PDB records.
Take “MGSDKIHHHHHHMSQQTGEASKIKGRFRNSHKVYGAGLGDLVGIIKAYLGAKRSAPSPKSAVPLQPITPAELARPQARLYRLGHSTVLMYLDGKWLLTDPVFSERASPFQWAGPKRFHQSPIAIEALPDIDGLILSHDHYDHLDTAAIKALAARVKHFYMPLGVGKRLIRLGIDKARITELDWWQSVQLGTIELTATPAQHFSGRGLFDRDATLWAGWAIHGEQARVFFSGDSGYFPGFAEIGERLGPFDVTLMETGAYNELWRDIHMMPEESLQAHLDVKGQLMVPIHNGTFDLALHDWFEPLERIRALAWDRSVKIATPIFGEALSLTLPGSGSDWWAQESAISTGVDAREKGRAPAAESSMVGIAES”: the “soluble on expression in E. coli” value is “not soluble”.

Turning to “MMKFDNSYAHLPERFSAAVLPTPVKAPRLIAFNRTLAEELLLDVADLDDDRLAAIFSGNVVPQGAEPLAMAYAGHQFGGFVPQLGDGRAILLGEVIDVNGRRRDIQLKGSGPTPFSRRGDGRAALGPVLREYIVSEAMFALGIPATRALAAVLSGDRVQREVGLPGGVFTRVAASHIRVGTFQFFAAREDDEAIRSLADYVIDRHYPDAKNTENPYLALLRGIAERQCALIARWMMVGFIHGVMNTDNMAVSGETIDFGPCAFLDEYHPNKVFSSIDAQGRYAYNNQPGIAQWNIARLAECLLPLLDPEVEKAAELANAVLADFAAAFPQRWLTGMREKLGLTTEEEGDMDLIQSLLSLMQASEADFTLTFRRLSHAANGDAEPFRGMFIDIAGADAFLTRWRERAGREGISDSERSAAMLSINPAIIPRNHRIEELIEAAVEDGDFEPFHAMLTAIATPFEERPDNFVYMQPPMSHERVFRTFCGTLEHHHHHH”, the “soluble on expression in E. coli” value is given as “soluble”. On to “MGSDKIHHHHHHMVSMTKLVELKNSEASAVVLPRHGAGLASFDFLWRGSRLPAFRPLITEPQHEHDLALYLLAPFSNRIGGGGFAWNGRRHDLRPNVEGEPCPLHGDAWQQHWTVMDQGRTHVTLQLLSRSIPPFAYDAEITWTLDGPSLSGALTLIHRGEDPMPYGGGFHPWLVRDSDTQLHARADGWWSEDSLHLPKRWHALVDNDSSGFGAPRSLPSNFFNTVYTGWHGRADIWWPGRGLALQIEAQAPLNRYIVYSPGAEADFFCFEPVSHDVNAHNAPSPLKHGLVELAEGESLHLSARFTATLR”, for which the “soluble on expression in E. coli” value is listed as “not soluble”. Turning to “AMSNNKIKRKDASPEQEAIESFTSLTKCDPKVSRKYLQRNHWNINYALNDYYDKEIGTFTDEVSTVAHPPVYPKELTQVFEHYINNNLFDIDSLVKFIEELGYNLEDLATLCLAHLLGYKKLEEPLKREDFLSTWFMQGCSTISDMQECIKTLDVKLHEDLQYFTQIYNYAFNLILDPNRKDIDTDEGIQYWKLFFQPEYPVRMEPDLLEAWFRFLRDEGKTTISKDTWRMLLLFFKRYPTIQKIISDYDETAAWPFIIDEFYECLQDQQ”, the “soluble on expression in E. coli” value is reported as “soluble”. “MDFKTVMQELEALGKERTKKIYISNGAHEPVFGVATGAMKPIAKKIKLNQELAEELYATGNYDAMYFAGIIADPKAMSESDFDRWIDGAYFYMLSDYVVAVTLSESNIAQDVADKWIASGDELKMSAGWSCYCWLLGNRKDNAFSESKISDMLEMVKDTIHHSPERTKSAMNNFLNTVAISYVPLHEKAVEIAKEVGIVEVKRDNKKSSLLNASESIQKELDRGRLGFKRKYVRC”: the “soluble on expression in E. coli” value was “soluble”.

In the case of “MAHHHHHHMQHSLRGDFVTQRSTCFRTEKERKQKALNLIKNENNAEGYFNNLNFNLEYTEELNEQITSLDPKTSIQELTNIFNDLNENRKKNFHYLIEALENVSLILAHQNDIPEKHRKSTWCKIKHDLQCDFIKEHPNIHSNFDVFIRKIQSIDEFISYIKECIHSWNNFTNEKKLQYFPKVYETYQSDKICKENNYKKINNKTECNPKESIKNESIPKECIPNENMKKECVPNGCMKKQCVPKECMKKECVTNGHMKKQCVPNECMKKQCVPKECMKKECVPNGCMKKECTPNKNDKNVNRTDINNQNKTNEKLCDKKEKKRLPSK”, the “soluble on expression in E. coli” value is recorded as “soluble”. For the sequence “MTGQNGQVARISPGKFRQLGPVNWLVAKLAARAVGAPQMHLFTTLGYRQYLFWTFAIYTGRLLHGRLPGVDTELVILRVAHLRSCEYELQHHRRMARRRGLDANTQATIFAWPDVPDGDGPRKVLSARQQALLQATDELIKDRTITAGTWERLATHLDPRLLIEFCLLATQYDAIAATITALAIPPDNPQ”, the “soluble on expression in E. coli” value is listed as “soluble”. In the case of “MIGSYLKIDSKPLSYQSSKAVLKHLDYNSRFQLHEQCPSLRNVLKVTPGFLNRLEFVGDCVKINGTTYQLKMTPVKLGSTTNHIQLWINGNLYAKTVSEPQNNKELAYLVCKLLRQAWEAVLYVGTLVYGNLIFPGFPKFFKFHVQHLVIGKDQDASDVLRRFGENFQNSSFKSLELFRTSSFEVPLIQSAEKLIINERMDLSALKSRRVHVEFKIDSKFLTDLIDCWLWNGAVGKTEKEAGSVFIFAMKGFREARMFVDDVKMKFEGKFYVDKR” it was “not soluble”; in that of “MGSDKIHHHHHHMTLRISQLAQKFGLSRSTLLYYEKQGLIRGRRLDNGYRVYSENDLQRLILIQKLQAGGLTLKECLACLDARIDKALLQTRLAELDADIAQKQASRTLLAALLGEGDLKAWHESLTKEAPEAHLDWLQTQGFSEKEALHLTWLSKDMNEHDKFMADFMQIFSPLTRWAPGSEADTLKALASVPLTPTRILDIGCGKGLATRMLAKHTKASITAIDNEEDALTELQQHLQHRNLASRVSTLCASMTDIPLPAASADLIWAEGSAYIMGVEQALKSWRKLLVDNGVLVLSDLVWLTDDKAPEAVAFWQQDYPAMTSVEARMAQMQAAGFEVIDSFSLSNEAWKSFTGPLAARVDEVSEQLAGSQALANVQRELGIFSRFLGQFGYQFFVLQKRG”, “not soluble”. For “MSDGKIIHDPVHGSMKIPEELIKLVDTPEIQRLRYIRQLGLANLVYPGANHSRFEHSLGVWYLAKKLSSELDIPRDEALLVQISALLHDIGHGPFSHTFERVYKERLKIGDHMEISRKIIEGKIDIVENGGEIPDIISDLGYSPKEVGELICGVHKKKYLSMIINGDIDVDQLDYLARDAHYTGVAHGIIDLERLLNVMKIHDNELVVDEKGLEAVEGMLVARSLMYSRVYFHRTVKIAEAMLIKGVEFALDSGELFDFWKMTDDRLIVELEDIGGFPSEIIQKIRRRELYKPAVIVGPQDLTGDERRIIASLYKNTKKIRELENELADRVGASEGEVIIELSVPELIISEPRLKQIEISILLGDGKKEPLTKVTPLASAIKRRQTPRWILIIATPPNYVEKVKSVWRKVIF” the value was “not soluble”; for “MGSDKIHHHHHHMLSRTADHLFWMSRYTERAENTARMLNVSYETSLLPQSADVAQESWLGLLSISELIPAYTARHGEVTREGVLEFMVRDGDNPSSILSCLRAARENARAVRGALTTEIWETQNQTWLELHRQLQGRDFERDPGAFFEWVKYRSHLSRGVTLGTMLQDEAFHFLRLGTFLERADNTARLLDVKFHAVQSDFHGSAMRERGRAAPQEFDFYHWSAILRSVSAFEVYRKVYRDVITPERVADLLMLRADMPRSLHASLREVADNLAVVANDQSAETQRKAGRLLADLRYGRIDEILATGLHAYLTQFLDRVNDLGAGISRDFLVPVPA”, “not soluble”; for “MERVNHLLQRLLGNQRFKQRYEQMKRYILEHPDVQPFLRAHERQLSADAVDRSLMKLYEFIEQHGNCRQCPGLERCNNMLPGYHPNLVVNGGRIDVEYDRCPKKVQHDERKRQESLIQSMFMPREILRASLSDVDLNDDGRIKAIRFAERFVAEYEPGKKMKGLYLHGSFGVGKTYLLAAIANELAKRNVSSLIVYVPELFREIKHSLQDQTMNEKLDYIKKVPVLMLDDLGAEAMSSWVRDDVFGPILQYRMFENLPTFFTSNFDMQQLAHHLTYSQRGEEEKVKAARIMERIRYLAYPIEITGPNRREQNI”, “not soluble”. With “MAKQELSAREAVTEAKCYLNNAKEILREKGAKTEGYYRDSKYVKMAGDTAYSGVLFVLDHYFGEKAKGRKDVDWYRINLSKEDRKMLDSFTAVYEQLHL”, the “soluble on expression in E. coli” value is “not soluble”.

Take “MGELFLVGMGPGDLPGLTQRAREALEGAEVVIGYSTYVKLLEEMGLLAGKEVVRKGMTEELDRAEEALERALSGQRVALVSGGDPGIYGMAAPVLELMEERGLKRVDGGVGLPGRFAGEEGEVFLAVIPGVTAANAVASLLESPLAHDTCLISLSDLLTPWPLIERRLHAAGQGDFVVVLYNPQSKRRDWQLRKSAEILLEYRPKETPAALVKSAYRKRQEVALTTLEGLREAEAGMLTTVVIGNRQSRFYEGTFLTPRGYALKYDLDTKEALPGETPGLSLVSPEGASSGRRDA”: the “soluble on expression in E. coli” value was “soluble”.

Regarding “MAHHHHHHMRKPGRKIVYVPDDDAQFLGSMSDPLPPRVSDLLRLKSPSMSDNGHAETGSNGTTGSPGYESIGNELLVSYGGYTLADGSGTLHPPTTRRNGAQLYKSLRKCCRFLRASLSDSMAPKLETDSESSWSCPSFCSSDPTSSSEYSDVSPQRGRRRAAKQANEQTGYNAMIVVQLRRLLHKRGLSTCGIKKVLVARLEQSDMQLSKSKEEGEEQKEQEELDGSAGECTKTERSEDVCSASCGNVSGRVTAAGPTSMLSSLLSFGSRLFRASTGSVSEGGHVSGLKRRRSV”, the “soluble on expression in E. coli” value is recorded as “not soluble”. For the sequence “SLIENSHVKKDDIWPSGGQMTVKDLTAKYTEGGNAILENISFSISPGQRVGLLGRTGSGKSTLLSAFLRLLNTEGEIQIDGVSWDSITLEQWRKAFGVIPQKVFIFSGTFRKNLDPYEQWSDQEIWKVADEVGLRSVIEQFPGKLDFVLVDGGCVLSHGHKQLMCLARSVLSKAKILLLDEPSAHLDPVTYQIIRRTLKQAFADCTVILCEARIEAMLECDQFLVIEENKVRQYDSIQKLLNERSDFRQAISPSDGPSAQLEKELQALEKENAQLEWELQALEKELAQ”, the “soluble on expression in E. coli” value is on record as “soluble”. In the case of “MSEEVGAKRWYAVHTYSGYENKVKKNLEKRVESMNMTEQIFRVVIPEEEETQVKDGKAKTTVKKTFPGYVLVELIMTDESWYVVRNTPGVTGFVGSAGAGSKPNPLLPEEVRFILKQMGLKEKTIDVELEVGEQVRIKSGPFANQVGEVQEIETDKFKLTVLVDMFGRETPVEVEFDQIEKL” it was “not soluble”. In the case of “MGSRRYDSRTTIFSPEGRLYQVEYALESISHAGTAIGIMASDGIVLAAERKVTSTLLEQDTSTEKLYKLNDKIAVAVAGLTADAEILINTARIHAQNYLKTYNEDIPVEILVRRLSDIKQGYTQHGGLRPFGVSFIYAGYDDRYGYQLYTSNPSGNYTGWKAISVGANTSAAQTLLQMDYKDDMKVDDAIELALKTLSKTTDSSALTYDRLEFATIRKGANDGEVYQKIFKPQEIKDILVKTGITKKDEDEEADEDMK” it was “soluble”. As to “GPGHMEGLRCVVLPEDLCHKFLQLAESNTVRGIETCGILCGKLTHNEFTITHVIVPKQSAGPDYCDMENVEELFNVQDQHDLLTLGWIHTHPTQTAFLSSVDLHTHCSYQLMLPEAIAIVCSPKHKDTGIFRLTNAGMLEVSACKKKGFHPHTKEPRLFSICKHVLVKDIKIIVLDLR”, the “soluble on expression in E. coli” value is given as “soluble”.

On to “MAHHHHHHMTGSNGNDEPFKREMRTVKVPHHRFPALKKVWMDVYTPIVEQCKLEIRMNLRGRSVELRTCPATVEAAGNEGSKALLQKAEDFVKAVVAGFDVKDAVALLRMDDVYIEGFEVKDVRANLQGDNLSRCIGRMSGSHGKTKHTIENVTRTRIVIADTHICIMGTTQNIRVARDALCDLIRGSPATKVYTRVRAVMNRVNDTF”, for which the “soluble on expression in E. coli” value is “soluble”.
